Reference: the supplement of paper PMC10567573

B1: LOXL2 (parent)
chain: RLLRFSSQIHNNGQSDFRPKNGRH

Variants of: B1
Assay: protein stability index of a GFP-peptide fusion (GPS, HEK-293T) (PSI 1-6); higher = more stable
Conditions: c terminus: a fixed tail appended
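Also: lentivirally expressed fusions sorted by FACS into six bins by GFP to DsRed ratio, PSI derived from sequencing read proportions per bin multiplied by bin number.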

| Variant | protein stability index |
| --- | --- |
| I9W | 2.74 |
| I9N | 3.19 |
| I9V | 2.99 |
| I9S | 3.04 |
| I9P | 3.44 |
| I9D | 3.5 |
| I9M | 3.07 |
| I9H | 3.26 |
| I9K | 2.31 |
| I9A | 2.81 |
| I9Y | 2.4 |
| I9F | 2.32 |
| I9R | 3.24 |
| I9G | 3.48 |
| I9C | 3.11 |
| I9Q | 3.14 |
| I9E | 3.93 |
| I9T | 3.14 |
| I9L | 2.12 |
| S6C | 3.08 |
| S6F | 2.09 |
| S6Y | 2.89 |
| S6N | 3.03 |
| S6P | 3.41 |

| Variant | protein stability index |
| --- | --- |
| S6G | 2.64 |
| S6D | 3.81 |
| S6A | 2.65 |
| S6M | 2.51 |
| S6L | 2.45 |
| S6E | 3.62 |
| S6K | 3.05 |
| S6T | 2.46 |
| S6R | 2.99 |
| S6H | 2.37 |
| S6I | 3.34 |
| S6Q | 2.71 |
| S6V | 3.85 |
| S6W | 2.56 |
| H10P | 3.12 |
| H10Y | 1.87 |
| H10I | 2.24 |
| H10F | 2.13 |
| H10Q | 2.83 |
| H10N | 3.06 |
| H10S | 2.71 |
| H10E | 3.43 |
| H10G | 2.57 |
| H10C | 2.46 |

| Variant | protein stability index |
| --- | --- |
| H10R | 2.36 |
| H10K | 2.8 |
| H10T | 2.89 |
| H10A | 3.28 |
| H10L | 2.14 |
| H10V | 2.68 |
| H10D | 3.68 |
| H10W | 2.13 |
| H10M | 2.47 |
| Q8L | 2.29 |
| Q8D | 3.81 |
| Q8S | 2.73 |
| Q8E | 3.17 |
| Q8M | 1.95 |
| Q8A | 2.94 |
| Q8N | 2.95 |
| Q8W | 1.77 |
| Q8K | 2.14 |
| Q8R | 2.91 |
| Q8G | 2.87 |
| Q8T | 2.67 |
| Q8P | 3.54 |
| Q8I | 2.23 |
| Q8Y | 2.05 |

| Variant | protein stability index |
| --- | --- |
| Q8V | 2.95 |
| Q8F | 2.07 |
| Q8C | 2.21 |
| Q8H | 2.5 |
| N12F | 1.74 |
| N12M | 2.36 |
| N12D | 3.69 |
| N12R | 2.52 |
| N12S | 3.25 |
| N12E | 2.57 |
| N12C | 2.36 |
| N12Y | 2.39 |
| N12H | 2.59 |
| N12V | 2.87 |
| N12W | 2.55 |
| N12P | 3.15 |
| N12Q | 2.57 |
| N12G | 3.16 |
| N12A | 2.89 |
| N12L | 2.15 |
| N12K | 2.65 |
| N12T | 2.72 |
| N12I | 2.27 |
| D16S | 2.73 |

| Variant | protein stability index |
| --- | --- |
| D16V | 2.15 |
| D16G | 2.12 |
| D16H | 2.35 |
| D16I | 2.17 |
| D16M | 1.77 |
| D16Q | 2.51 |
| D16Y | 2.06 |
| D16C | 1.73 |
| D16F | 1.97 |
| D16K | 1.94 |
| D16W | 2.37 |
| D16P | 2.11 |
| D16L | 2.7 |
| D16R | 2.23 |
| D16A | 2.36 |
| D16E | 2.72 |
| D16N | 2.27 |
| D16T | 2.29 |
| G22A | 2.57 |
| F5C | 3.06 |
| F5V | 3.74 |
| F5H | 3.95 |
| F5Y | 2.96 |
| F5G | 4.21 |

| Variant | protein stability index |
| --- | --- |
| F5M | 2.77 |
| F5D | 3.84 |
| F5E | 3.94 |
| F5N | 3.92 |
| F5I | 2.72 |
| F5P | 3.71 |
| F5L | 2.54 |
| F5Q | 3.6 |
| F5T | 3.99 |
| F5A | 3.46 |
| F5S | 3.81 |
| F5K | 3.29 |
| F5R | 3.69 |
| F5W | 2.15 |
| K20L | 1.89 |
| K20A | 2.49 |
| K20D | 2.91 |
| K20T | 3.01 |
| K20R | 2.78 |
| K20H | 2.6 |
| K20M | 1.92 |
| K20G | 2.79 |
| K20Q | 2.54 |
| K20Y | 2.23 |

| Variant | protein stability index |
| --- | --- |
| K20E | 3.45 |
| K20I | 2.17 |
| K20P | 2.47 |
| K20W | 2.08 |
| K20F | 2.22 |
| K20V | 2.35 |
| K20C | 2.35 |
| K20N | 2.92 |
| K20S | 2.78 |
| Q14P | 2.81 |
| Q14E | 3.26 |
| Q14D | 2.84 |
| Q14F | 1.8 |
| Q14G | 2.52 |
| Q14R | 2.5 |
| Q14C | 2.3 |
| Q14Y | 1.91 |
| Q14H | 2.59 |
| Q14I | 2.11 |
| Q14K | 2.39 |
| Q14N | 2.79 |
| Q14W | 2.06 |
| Q14M | 2.5 |
| Q14V | 2.15 |

| Variant | protein stability index |
| --- | --- |
| Q14T | 3.35 |
| Q14S | 3.15 |
| Q14L | 2.19 |
| Q14A | 2.55 |
| R18H | 2.45 |
| R18D | 3.29 |
| R18C | 2.42 |
| R18Y | 2.59 |
| R18I | 2.61 |
| R18K | 3.23 |
| R18S | 3.05 |
| R18A | 3.21 |
| R18N | 2.87 |
| R18E | 3.27 |
| R18M | 2.67 |
| R18V | 3.04 |
| R18G | 2.33 |
| R18T | 3.29 |
| R18L | 2.31 |
| R18W | 3.03 |
| R18Q | 2.99 |
| R18P | 2.83 |
| R18F | 2.6 |
| R4N | 3.35 |

| Variant | protein stability index |
| --- | --- |
| R4Y | 2.66 |
| R4T | 3.09 |
| R4M | 2.81 |
| R4W | 2.15 |
| R4P | 3.86 |
| R4Q | 2.57 |
| R4S | 2.79 |
| R4V | 2.62 |
| R4L | 2.36 |
| N21G | 2.49 |
| N21M | 2.27 |
| N21I | 1.79 |
| N21L | 2.17 |
| N21C | 2.13 |
| N21W | 1.52 |
| N21H | 2.23 |
| N21S | 2.33 |
| N21R | 2.62 |
| N21F | 2.04 |
| N21P | 2.4 |
| N21T | 2.37 |
| N21A | 2.82 |
| N21D | 2.93 |
| N21Q | 2.71 |

| Variant | protein stability index |
| --- | --- |
| N21V | 2.41 |
| N21E | 2.97 |
| N21Y | 1.77 |
| N21K | 2.85 |
| N11D | 3.29 |
| N11H | 2.8 |
| N11A | 2.84 |
| N11R | 2.2 |
| N11E | 2.86 |
| N11P | 2.65 |
| N11Y | 2.17 |
| N11W | 2.51 |
| N11I | 2.39 |
| N11S | 2.54 |
| N11M | 2.81 |
| N11K | 2.29 |
| N11C | 2.17 |
| N11L | 2.69 |
| N11V | 4.07 |
| N11F | 2.23 |
| N11T | 2.7 |
| N11Q | 2.46 |
| N11G | 2.23 |
| S15P | 3.12 |

| Variant | protein stability index |
| --- | --- |
| S15G | 3.29 |
| S15N | 2.36 |
| S15R | 2.55 |
| S15E | 3.14 |
| S15K | 2.42 |
| S15T | 2.8 |
| S15A | 2.61 |
| S15Y | 2.83 |
| S15V | 2.44 |
| S15L | 2.36 |
| S15D | 3.06 |
| S15Q | 2.77 |
| S15W | 2.44 |
| S15H | 3.05 |
| S15C | 2.65 |
| S15F | 2.28 |
| S15I | 2.72 |
| S15M | 2.2 |
| P19W | 2.76 |
| P19I | 2.58 |
| P19S | 2.98 |
| P19M | 2.21 |
| P19L | 2.54 |
| P19C | 2.52 |

| Variant | protein stability index |
| --- | --- |
| P19T | 2.32 |
| P19H | 2.54 |
| P19Y | 2.37 |
| P19V | 2.04 |
| P19Q | 2.7 |
| P19D | 2.9 |
| P19A | 2.67 |
| P19F | 2.13 |
| P19N | 2.84 |
| P19K | 2.71 |
| P19G | 2.78 |
| P19E | 3.29 |
| P19R | 2.41 |
| G13D | 3.19 |
| G13Y | 2.09 |
| G13I | 2.31 |
| G13P | 2.62 |
| G13S | 2.46 |
| G13M | 2.81 |
| G13A | 2.48 |
| G13L | 2.39 |
| G13W | 2.56 |
| G13F | 2.25 |
| G13R | 3.19 |

| Variant | protein stability index |
| --- | --- |
| G13H | 3.06 |
| G13C | 1.97 |
| G13T | 2.74 |
| G13V | 2.24 |
| G13Q | 3.2 |
| G13K | 2.15 |
| G13E | 3.31 |
| G13N | 2.94 |
| S7T | 2.21 |
| S7I | 1.89 |
| S7Q | 2.18 |
| S7A | 2.5 |
| S7F | 1.79 |
| S7H | 2.44 |
| S7R | 2.25 |
| S7C | 2.41 |
| S7V | 2.04 |
| S7N | 2.79 |
| S7P | 4.2 |
| S7W | 2.06 |
| S7K | 2.21 |
| S7D | 3.57 |
| S7L | 1.78 |
| S7E | 2.79 |

| Variant | protein stability index |
| --- | --- |
| S7G | 2.46 |
| S7Y | 2.25 |
| S7M | 1.79 |
| F17K | 3.34 |
| F17E | 3.67 |
| F17H | 3.52 |
| F17M | 3.06 |
| F17C | 2.8 |
| F17I | 3.38 |
| F17V | 2.95 |
| F17W | 2.32 |
| F17Q | 3.42 |
| F17Y | 2.69 |
| F17T | 3.31 |
| F17A | 2.95 |
| F17S | 3.15 |
| F17G | 3.04 |
| F17P | 3.45 |
| F17L | 2.75 |
| F17D | 3.75 |
| F17N | 3.42 |
| F17R | 3.06 |
